# Test results taken from paper PMC6367273.
# How the values were obtained:
# [1] = biological target: LPHN1-S (FLAG-tagged splice variant of murine LPHN1 with a truncated intracellular tail) (mouse); test: immunostaining of cells or tissue; HEK-LPHN1-S, HEK-WT and HEK-Puro cells incubated with FITC-K37-mTCAP-1 (1:400) in medium with HEPES pH 7.4 and 0.1% BSA for 12 h at 4°C, washed, fixed, stained with Cy3-tagged FLAG antibody; confocal microscopy; green pixels (intensity 20-255) per cell
# [2] = biological target: LPHN1-S (FLAG-tagged splice variant of murine LPHN1 with a truncated intracellular tail) (mouse)
# [3] = biological target: LPHN1-S (FLAG-tagged splice variant of murine LPHN1 with a truncated intracellular tail) (mouse); remark: listed apart in the source
green pixels per cell [1] [pixels/cell],cell height of HEK-LPHN1-S cells treated with 100 nM mTCAP-1 for 60 min against vehicle; no significant change in HEK-WT cells [2] [%],f-actin (Phalloidin red pixels per cell) in HEK-LPHN1-S cells treated with 100 nM mTCAP-1 for 60 min against vehicle; no significant change in HEK-WT cells [3] [%],Substance
49.5,–,–,FITC-tagged K37-mTCAP-1 (peptide)
–,39,343,"Mouse TCAP-1 (mTCAP-1), synthetic (peptide)"
